In PMC11912399:

Legend:
[1] = biological target: CrImpαΔIBB (Chlamydomonas reinhardtii importin α IPA1, Cre04.g215850, lacking the autoinhibitory IBB domain) (Chlamydomonas reinhardtii); assay: ELISA
[2] = biological target: CrImpαΔIBB (Chlamydomonas reinhardtii importin α IPA1, Cre04.g215850, lacking the autoinhibitory IBB domain) (Chlamydomonas reinhardtii); assay: MST

Row | Substance | Kd [1] [nM] | Kd [2] [nM]
1 | PN Cas9 (Cas9 with the putative endogenous CrPAP1 NLS fused to its N-terminus) (enzyme) | 17.1 | 
2 | D^NopN Cas9 (Cas9 with the nopaline-type VirD2^N NLS fused to its N-terminus) (enzyme) | 7.88 | 
3 | SN Cas9 (Cas9 with the SV40TAg NLS fused to its N-terminus) (enzyme) | 8.73 | 11.4
4 | D^K1AR2AN Cas9 (DN Cas9 with K1A and R2A in the VirD2^O NLS) (enzyme) | 13.3 | 
5 | D^K1AR2AR15AN Cas9 (DN Cas9 with K1A, R2A and R15A in the VirD2^O NLS) (enzyme) | 42.6 | 
6 | D^R15AN Cas9 (DN Cas9 with R15A in the VirD2^O NLS) (enzyme) | 15.2 | 
7 | DC Cas9 (Cas9 with the VirD2^O NLS fused to its C-terminus) (enzyme) | 5.01 | 
8 | EN Cas9 (Cas9 with the VirE2^O NLS fused to its N-terminus) (enzyme) | 7.81 | 
9 | SC Cas9 (Cas9 with the SV40TAg NLS fused to its C-terminus) (enzyme) | 9.21 | 
10 | DN Cas9 (Cas9 with the VirD2^O NLS fused to its N-terminus) (enzyme) | 4.79 | 4.48
11 | EC Cas9 (Cas9 with the VirE2^O NLS fused to its C-terminus) (enzyme) | 6.9 | 
